Experimental data taken from the supplement of paper PMC10567573.

B1: CDC14A (parent)
chain: GPHPKSKIENGYPLHAPEAYFPYF

Variants of: B1
Assay: protein stability index of a GFP-peptide fusion (GPS, HEK-293T) (PSI 1-6); higher = more stable
Conditions: c terminus: a fixed tail appended
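Note: lentivirally expressed fusions sorted by FACS into six bins by GFP to DsRed ratio, PSI derived from sequencing read proportions per bin multiplied by bin number.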

Protein stability index: each site, then its substitutions
E9: Y 1.64 | W 1.77 | C 2.09 | T 2.22 | F 1.77 | M 1.58 | S 2.21 | R 1.6 | L 1.76 | A 1.92 | D 1.96 | Q 2.02 | K 1.44 | P 1.69 | V 1.81 | I 2.2 | H 2.29 | N 1.91 | G 2.31
E18: R 2.69 | N 2.01 | S 2.28 | C 1.65 | L 2.03 | F 1.92 | G 2.3 | D 2.62 | A 2.61 | V 1.57 | Q 2.31 | M 1.45 | I 1.95 | H 2.24 | T 2.01 | Y 2.22 | W 1.56 | K 2.23
S6: H 2.63 | T 2.15 | L 2.22 | M 1.6 | W 1.88 | G 2.14 | A 2.36 | V 2.16 | P 2 | E 2.3 | K 2.58 | D 2.59 | Y 1.82 | R 2.2 | F 2.11 | I 2.01 | Q 2.22 | C 1.87 | N 2.21
Y12: G 2.67 | C 2.42 | W 1.86 | V 2.19 | R 2.58 | T 3.07 | F 1.78 | K 2.69 | L 2.46 | H 2.99 | S 2.73 | A 2.99 | N 3.03 | Q 2.7 | E 3.56 | D 3.24 | I 2.82 | M 2.74
P13: D 2.81 | A 2.57 | V 2.05 | I 1.43 | E 2.94 | C 1.97 | N 2.68 | W 1.58 | L 1.95 | T 1.96 | M 1.68 | G 2.39 | Y 1.88 | F 1.92 | Q 2.43 | S 2.22 | K 1.88 | H 1.92 | R 2.06
H15: T 2.74 | G 2.59 | W 1.2 | A 2.45 | S 2.83 | V 2.53 | D 2.63 | E 2.79 | F 1.7 | I 1.87 | K 2.7 | C 2.23 | R 2.29 | P 2.57 | Y 1.68 | Q 1.93 | M 1.96 | N 2.37 | L 1.76
I8: E 3.29 | P 2.56 | N 2.98 | Q 2.7 | L 2.03 | R 2.75 | T 2.48 | C 2.45 | H 2.37 | D 3.34 | F 2.23 | G 2.28 | K 2.53 | W 1.77 | Y 1.88 | M 2.09 | V 2.48 | A 2.54 | S 2.29
P4: Y 1.89 | N 2.48 | K 2.29 | I 1.91 | T 2 | V 2.84 | R 2.8 | L 1.51 | A 2.52 | E 2.11 | H 2.24 | W 2.08 | Q 2.23 | F 2.24 | M 2.33 | S 1.86 | G 2.22 | D 2.12 | C 2.27
K5: I 2.06 | G 1.99 | L 2.37 | Y 1.66 | R 2.38 | V 1.92 | N 2.07 | E 2.5 | M 1.87 | A 2.26 | S 2.56 | F 1.29 | D 2.08 | W 1.92 | T 2.13 | C 2.23 | Q 2.77
H3: M 2.19 | W 1.66 | E 2.46 | A 2.4 | K 2.46 | D 2.01 | Y 1.9 | F 2.02 | T 1.91 | G 2.54 | R 2.19 | S 2.55 | I 2.48 | C 2.01 | N 2.54 | L 2.19 | Q 2.7 | V 2.41
L14: F 2.02 | G 2.65 | M 2.41 | N 2.81 | K 2.4 | I 2.27 | Q 3.06 | H 2.68 | D 2.59 | Y 1.89 | C 1.67 | A 2.46 | W 2.46 | V 2.11 | R 2.51 | E 3.65 | T 2.45 | S 2.79
A19: H 2.22 | E 2.36 | S 2.35 | F 2.39 | D 2.2 | Q 2.48 | T 2.39 | K 2.51 | L 1.98 | N 2.71 | G 2.22 | M 2.97 | P 2.41 | I 2.38 | C 1.8 | R 1.78
K7: R 2.43 | H 2.22 | A 2.33 | G 2.84 | I 1.98 | F 1.99 | Y 1.84 | V 2.59 | L 2.06 | D 2.13 | P 2.72 | E 2.27 | W 1.57 | Q 1.96 | S 2.31 | C 2.23 | N 2.57 | T 2.43 | M 1.91
G1: W 1.73 | Y 1.51
A16: M 2.01 | G 2.77 | N 2.25 | K 2.12 | R 2.35 | Y 2.29 | S 2.14 | F 1.82 | D 2.45 | E 2.4 | T 2.41 | C 2.84 | I 2.04 | V 2.21 | Q 2.49 | H 2.32 | L 1.95 | W 1.99
P2: A 2.35 | I 2.28 | E 2.09 | K 1.94 | M 2.13 | C 1.67 | G 1.74 | V 2.41 | N 2.1 | T 2.17 | F 2.8 | Q 2.14 | L 2.29 | W 2.45 | H 2.46 | D 2.29 | R 2.34 | S 2.33 | Y 1.85
P17: C 2 | S 1.87 | K 3.2 | L 1.97 | F 1.87 | T 3.15 | Q 2.14 | N 2.16 | V 1.92 | D 2.71 | R 1.8 | M 2.07 | I 2.06 | H 1.84 | G 2.48 | E 2.11 | Y 1.79 | W 2.04 | A 2.21
N10: M 2.31 | P 2.52 | E 2.29 | I 1.63 | T 1.82 | F 2.51 | C 2.05 | V 2.06 | L 2.19 | G 2.18 | Q 2.99 | Y 1.79 | K 2.65 | D 1.96 | R 1.55 | A 2.51 | W 1.89 | H 2.57 | S 2.97
G11: A 2.41 | R 2.5 | V 2.03 | L 2.56 | I 1.64 | N 2.07 | Q 2.31 | D 2.85 | C 1.73 | S 2.09 | W 1.55 | M 2.09 | T 1.75 | P 3.76 | H 2.17 | K 2.44 | E 2.52 | F 1.72 | Y 2.12
